Measured values reported in patent US20080050351A1 (Pfizer, published 2008).

Molecular target: T1, lecithin:cholesterol acyltransferase (LCAT), purified from human plasma (human, UniProt P04180 25-440)
T1 sequence (looked up): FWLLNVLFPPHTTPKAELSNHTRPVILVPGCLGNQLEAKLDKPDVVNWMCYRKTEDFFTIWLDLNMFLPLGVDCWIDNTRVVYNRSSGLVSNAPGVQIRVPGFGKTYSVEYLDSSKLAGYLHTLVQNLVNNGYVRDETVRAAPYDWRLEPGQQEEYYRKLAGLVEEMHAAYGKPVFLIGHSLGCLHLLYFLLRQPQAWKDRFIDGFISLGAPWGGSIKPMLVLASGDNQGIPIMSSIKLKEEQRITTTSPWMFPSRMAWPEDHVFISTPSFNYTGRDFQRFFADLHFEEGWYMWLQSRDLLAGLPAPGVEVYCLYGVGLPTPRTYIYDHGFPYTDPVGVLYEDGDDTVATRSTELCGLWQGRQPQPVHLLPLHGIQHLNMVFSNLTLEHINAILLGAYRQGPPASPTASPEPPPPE
Experiment: cell-based or functional assay

- ACTIVITY (%) LCAT: 12%
Binder: DVLDLFRELLEELKQKLK [peptide 221]
